Assay results reported in patent US20220074941A1, “HSP90 COMBINATION THERAPY” (Sloan-Kettering Institute for Cancer Research, priority 2011, published 2022).

B1: HEATR2 (protein, UniProt Q86Y56 2-855, looked up)
Dynein axonemal assembly …: AALGVAEAVAAPHPAEGAETAEAVELSRALSRLLPGLEADSKPGRRRALEALRRALEEPGPAADPTAFQGPWARLLLPRLLRCLSDPAEGCRALAVHLLDLGLRRAARPRDALPRLLPALAARLAGPVPARRPPEACEELRLALVQLLGLAVDLCGAALAPHLDDALRALRCSLLDPFAAVRRESCSCAAALAQATPDHFHMQSESLIGPLMQTISHQHWKVRVAAIEATGAVIHFGNGKSVDDVLSHFAQRLFDDVPQVRRAVASVVGGWLLCLRDRYSFFHKLIPLLLSSLNDEVPEVRQLAASLWEDVGLQWQKENEEDLKDKLDFAPPTPPHYPPHERRPVLGCRELVFRNLSKILPALCHDITDWVVGTRVKSAQLLPVLLLHAEDHATQHLEVVLRTLFQACTDEEAAVVQSCTRSAELVGTFVSPEVFLKLILSTLKKTPSASGLLVLASAMRGCPREALQPHLAAIATELAQAHICQASENDLYLERLLLCVQALVSVCHEDCGVASLQLLDVLLTIVALAGATGLRDKAQETMDSLAMVEGVSSCQDLYRKHIGPLLERVTASHLDWTAHSPELLQFSVIVAQSGPALGEALPHVVPTLRACLQPSQDPQMRLKLFSILSTVLLRATDTINSQGQFPSYLETVTKDILAPNLQWHAGRTAAAIRTAAVSCLWALTSSEVLSAEQIRDVQETLMPQVLTTLEEDSKMTRLISCRIINTFLKTSGGMTDPEKLIRIYPELLKRLDDVSNDVRMAAASTLVTWLQCVKGANAKSYYQSSVQYLYRELLVHLDDPERAIQDAILEVLKEGSGLFPDLLVRETEAVIHKHRSATYCEQLLQHVQAVPATQ
B2: KIAA1468 (protein, UniProt Q9P260 2-1216, looked up)
RAB11-binding protein RELCH: AAMAPGGSGSGGGVNPFLSDSDEDDDEVAATEERRAVLRLGAGSGLDPGSAGSLSPQDPVALGSSARPGLPGEASAAAVALGGTGETPARLSIDAIAAQLLRDQYLLTALELHTELLESGRELPRLRDYFSNPGNFERQSGTPPGMGAPGVPGAAGVGGAGGREPSTASGGGQLNRAGSISTLDSLDFARYSDDGNRETDEKVAVLEFELRKAKETIQALRANLTKAAEHEVPLQERKNYKSSPEIQEPIKPLEKRALNFLVNEFLLKNNYKLTSITFSDENDDQDFELWDDVGLNIPKPPDLLQLYRDFGNHQVTGKDLVDVASGVEEDELEALTPIISNLPPTLETPQPAENSMLVQKLEDKISLLNSEKWSLMEQIRRLKSEMDFLKNEHFAIPAVCDSVQPPLDQLPHKDSEDSGQHPDVNSSDKGKNTDIHLSISDEADSTIPKENSPNSFPRREREGMPPSSLSSKKTVHFDKPNRKLSPAFHQALLSFCRMSADSRLGYEVSRIADSEKSVMLMLGRCLPHIVPNVLLAKREELIPLILCTACLHPEPKERDQLLHILFNLIKRPDDEQRQMILTGCVAFARHVGPTRVEAELLPQCWEQINHKYPERRLLVAESCGALAPYLPKEIRSSLVLSMLQQMLMEDKADLVREAVIKSLGIIMGYIDDPDKYHQGFELLLSALGDPSERVVSATHQVFLPAYAAWTTELGNLQSHLILTLLNKIEKLLREGEHGLDEHKLHMYLSALQSLIPSLFALVLQNAPFSSKAKLHGEVPQIEVTRFPRPMSPLQDVSTIIGSREQLAVLLQLYDYQLEQEGTTGWESLLWVVNQLLPQLIEIVGKINVTSTACVHEFSRFFWRLCRTFGKIFTNTKVKPQFQEILRLSEENIDSSAGNGVLTKATVPIYATGVLTCYIQEEDRKLLVGFLEDVMTLLSLSHAPLDSLKASFVELGANPAYHELLLTVLWYGVVHTSALVRCTAARMFELTLRGMSEALVDKRVAPALVTLSSDPEFSVRIATIPAFGTIMETVIQRELLERVKMQLASFLEDPQYQDQHSLHTEIIKTFGRVGPNAEPRFRDEFVIPHLHKLALVNNLQIVDSKRLDIATHLFEAYSALSCCFISEDLMVNHFLPGLRCLRTDMEHLSPEHEVILSSMIKECEQKVENKTVQEPQGSMSIAASLVSEDTKTKFLNKMGQLTTSGAMLANVFQRKK
B3: CTTN (protein, UniProt Q14247 1-550, looked up)
Src substrate cortactin: MWKASAGHAVSIAQDDAGADDWETDPDFVNDVSEKEQRWGAKTVQGSGHQEHINIHKLRENVFQEHQTLKEKELETGPKASHGYGGKFGVEQDRMDKSAVGHEYQSKLSKHCSQVDSVRGFGGKFGVQMDRVDQSAVGFEYQGKTEKHASQKDYSSGFGGKYGVQADRVDKSAVGFDYQGKTEKHESQRDYSKGFGGKYGIDKDKVDKSAVGFEYQGKTEKHESQKDYVKGFGGKFGVQTDRQDKCALGWDHQEKLQLHESQKDYKTGFGGKFGVQSERQDSAAVGFDYKEKLAKHESQQDYSKGFGGKYGVQKDRMDKNASTFEDVTQVSSAYQKTVPVEAVTSKTSNIRANFENLAKEKEQEDRRKAEAERAQRMAKERQEQEEARRKLEEQARAKTQTPPVSPAPQPTEERLPSSPVYEDAASFKAELSYRGPVSGTEPEPVYSMEAADYREASSQQGLAYATEAVYESAEAPGHYPAEDSTYDEYENDLGITAVALYDYQAAGDDEISFDPDDIITNIEMIDDGWWRGVCKGRYGLFPANYVELRQ
B4: AIP (protein, UniProt O00170 1-330, looked up)
AH receptor-interacting …: MADIIARLREDGIQKRVIQEGRGELPDFQDGTKATFHYRTLHSDDEGTVLDDSRARGKPMELIIGKKFKLPVWETIVCTMREGEIAQFLCDIKHVVLYPLVAKSLRNIAVGKDPLEGQRHCCGVAQMREHSSLGHADLDALQQNPQPLIFHMEMLKVESPGTYQQDPWAMTDEEKAKAVPLIHQEGNRLYREGHVKEAAAKYYDAIACLKNLQMKEQPGSPEWIQLDQQITPLLLNYCQCKLVVEEYYEVLDHCSSILNKYDDNVKAYFKRGKAHAAVWNAQEAQADFAKVLELDPALAPVVSRELRALEARIRQKDEEDKARFRGIFSH
B5: HEATR6 (protein, UniProt Q6AI08 1-1181, looked up)
HEAT repeat-containing …: MAAVQVVGSWPSVQPREAPREAIPERGNGFRLLSARLCALRPDDSSSARTEIHLLFDQLISENYSEGSGVAPEDVSALLVQACRLVPLNQNHLVSKVSQLIHHLLNRLQVIVDEQHLDFLLAYTISAIHQCSSWTHREILQALAALVYCNGSKCQKYLPELLGNTGLLMKLSDLAQSDPEVRRAAVHCMANLCLSVPGQPYLEEPYQNVCFQAFLTILQSPKSSDMDDITFCMLLQNALKGIQSLLNGGRMKLTQTDELGALLAVLKKFMFHGLPGLNIEMPTVLYPTPLPQYDGRTPIKPQQSESSASRPTLNKKKKSKVKPKKIQQGEEEEKESSGEIEAAPVTGTGRVNLHEGNTWCPSSLGVQSLPLDGSGAAEKDGVSSSFSSSSWKRVSSSESDFSDAEGGMQSKMRSYQAKVRQGALVCFLSTIKSIEKKVLYGYWSAFIPDTPELGSPQSVSLMTLTLKDPSPKTRACALQVLSAILEGSKQFLSVAEDTSDHRRAFTPFSVMIACSIRELHRCLLLALVAESSSQTVTQIIKCLANLVSNAPYDRLKLSLLTKVWNQIKPYIRHKDVNVRVSSLTLLGAIVSTHAPLPEVQLLLQQPCSSGLGNSNSATPHLSPPDWWKKAPAGPSLEETSVSSPKGSSEPCWLIRLCISIVVLPKEDSCSGSDAGSAAGSTYEPSPMRLEALQVLTLLARGYFSMTQAYLMELGEVICKCMGEADPSIQLHGAKLLEELGTGLIQQYKPDSTAAPDQRAPVFLVVMFWTMMLNGPLPRALQNSEHPTLQASACDALSSILPEAFSNLPNDRQMLCITVLLGLNDSKNRLVKAATSRALGVYVLFPCLRQDVIFVADAANAILMSLEDKSLNVRAKAAWSLGNLTDTLIVNMETPDPSFQEEFSGLLLLKMLRSAIEASKDKDKVKSNAVRALGNLLHFLQPSHIEKPTFAEIIEESIQALISTVLTEAAMKVRWNACYAMGNVFKNPALPLGTAPWTSQAYNALTSVVTSCKNFKVRIRSAAALSVPGKREQYGSVDQYARIWNALVTALQKSEDTIDFLEFKYCVSLRTQICQALIHLLSLASASDLPCMKETLELSGNMVQSYILQFLKSGAEGDDTGAPHSPQERDQMVRMALKHMGSIQAPTGDTARRAIMGFLEEILAVCFDSSGSQGALPGLTNQ

Columns and labels:
[1] = system: Hsp90 complexes in Mia-PaCa-2 cell extract; experiment: Nano-LC-MS/MS of PU-beads pull-downs; format: binding, human; details: protein identified in PU-beads pull-down of Mia-PaCa-2 cell extract; QSTAR-Elite QTof MS
Experimental: (§1) Lysates prepared as mentioned above were first pre-cleaned by incubation with control beads overnight at 4° C. […] Beads were washed with lysis buffer, proteins eluted by boiling in 2% SDS, separated on a denaturing gel and Coomassie stained according to manufacturer's procedure (Biorad). […] Analyses of the batch purified pools were done using a QSTAR-Elite hybrid quadrupole time-of-flight mass spectrometer (QTof MS) (AB/MDS Sciex), equipped with a nano spray ion source. Peptide mixtures (in 20 μL) are loaded onto a trapping guard column (0.3×5-mm PepMap C18 100 cartridge from LC Packings) using an Eksigent nano MDLC system (Eksigent Technologies, Inc) at a flow rate of 20 μL/min. […] Electrospray ionization (ESI) needle voltage was set at about 1800 V. The mass analyzer is operated in automatic, data-dependent MS/MS acquisition mode, with the threshold set to 10 counts per second of doubly or triply charged precursor ions selected for fragmentation scans. Survey scans of 0.25 sec are recorded from 400 to 1800 amu; up to 3 MS/MS scans are then collected sequentially for the selected precursor ions, recording from 100 to 1800 amu. The collision energy is automatically adjusted in accordance with the m/z value of the precursor ions selected for MS/MS. Selected precursor ions are excluded from repeated selection for 60 sec after the end of the corresponding fragmentation duty cycle. […] One missed tryptic cleavage site was allowed, precursor ion mass tolerance=0.4 Da fragment ion mass tolerance=0.4 Da, protein modifications were allowed for Met-oxide, Cys-acrylamide and N-terminal acetylation. MudPit scoring was typically applied with ‘require bold red’ activated, and using significance threshold score p<0.05. Unique peptide counts (or ‘spectral counts’) and percent sequence coverages for all identified proteins were exported to Scaffold Proteome Software (version 2_06_01, www.proteomesoftware.com) for further bioinformatic analysis (Table 5a). Using output from Mascot, Scaffold validates, organizes, and interprets mass spectrometry data, allowing more easily to manage large amounts of data, to compare samples, and to search for protein modifications.

[2] = system: Hsp90 complexes in K562 cell extract; experiment: Nano-LC-MS/MS of PU-beads pull-downs; format: binding; details: protein identified in PU-beads pull-down of K562 cell extract, QSTAR-Elite QTof MS
Experimental: Protein cargo isolated from cell lysate with PU-beads or control-beads was subjected to proteomic analysis by nano liquid chromatography coupled to tandem mass spectrometry (nano LC-MS/MS). Initial protein identification was performed using the Mascot search engine, and was further evaluated using Scaffold Proteome Software (Tables 5a-d).
as §1

Row | Molecule | Number of Assigned Spectra, Mia-Paca 2 [1] | Number of Assigned Spectra, K562 Prep 1 [2] | Number of Assigned Spectra, K562 Prep 2 [2]
1 | B1 | 11 | 5 | 2
2 | B2 | 3 | 0 | 0
3 | B3 | 2 | 6 | 6
4 | B4 | 0 | 10 | 0
5 | B5 | 0 | 2 | 1
